The target of test [1] is reductively methylated PilT4 from Geobacter metallireducens (methylated PilT^Gm) (Geobacter metallireducens GS-15). Nature of the test: crystal structure; methylated PilT^Gm, no added nucleotide; vapor diffusion 20 °C; 200 mM ammonium sulfate, 100 mM Bis-Tris-HCl pH 6.5, 25% PEG3350; 3.3 Å; OCOCOC conformation.
The target of test [2] is PilT4 from Geobacter metallireducens (PilT^Gm) (Geobacter metallireducens GS-15). Nature of the test: cryo-EM structure; PilT^Gm 0.5 mg/ml without added nucleotide, 4 °C; untilted 2D class averages and 40° tilted 3D maps (OCOCOC 4.0 Å, OOCOOC 4.1 Å); 2D class averages also with 1 mM MgCl2 plus 0.1 or 1 mM ADP.
The target is the same in test [3]. Nature of the test: crystal structure; PilT^Gm with 2 mM ATP and 2 mM MgCl2; 9% PEG4000, 100 mM MES pH 6, 200 mM MgCl2; 20 °C; 1.9 Å; CCCCCC conformation.
The target is the same in test [4]. Nature of the test: cryo-EM structure; PilT^Gm 0.5 mg/ml incubated 10 min at 4 °C with 1 mM MgCl2 plus 1 mM ATP; 4.4 Å map, CCCCCC conformation; 2D class averages also with 1 mM ATP plus 0.1 or 1 mM ADP.
For test [5] the target is unchanged. Nature of the test: crystal structure; PilT^Gm with 2 mM ANP and 2 mM MgCl2; 2% benzamidine-HCl, 100 mM HEPES-HCl pH 7.9, 200 mM ammonium acetate, 17.5% PEG3350; 20 °C; anisotropic 4.1, 6.7 and 4.0 Å; CCOCCO conformation.
For test [6] the target is unchanged. The test can be described thus: crystal structure; PilT^Gm without added nucleotide (partial-occupancy ADP, pH 7.1, 3.0 Å) or preincubated with Mg2+ and ATP and unbound nucleotide removed (full-occupancy ADP, pH 7.6); 11.5% PEG3350, 200 mM L-proline, 100 mM HEPES; 20 °C; OCOCOC conformation, pseudo-C3.
For test [7], the target named is PilB from Geobacter metallireducens (PilB^Gm) (Geobacter metallireducens). The test can be described thus: cryo-EM structure; PilB^Gm 0.6 mg/ml without added nucleotide, 4 °C; 2D class averages and 7.8 Å 3D map, CCOCCO conformation.

In test [1], “reductively methylated PilT4 from Geobacter metallireducens (methylated PilT^Gm) (enzyme)” had a stoichiometry N of 6.

Take “PilT4 from Geobacter metallireducens (PilT^Gm) (enzyme)”: the stoichiometry N in test [2], in test [3], in test [4], in test [5] and in test [6] was 6 throughout.

For the substance “PilB from Geobacter metallireducens (PilB^Gm) (enzyme)”, in test [7], the stoichiometry N is 6.

Broadly, the stoichiometry N is a count of units in the complex or per binding partner.

(Values after article PMC6858323, “Multiple conformations facilitate PilT function in the type IV pilus” (Nature Communications, 2019).)
